# Experimental data taken from US20220049002A1 (KINDRED BIOSCIENCES, published 2022).
# B1: Clone I antibody (mouse monoclonal anti-canine IL4R) (antibody, mouse IgG1, kappa, V domains shown)
# VH: EVQLQQSGPELVKPGASVKMSCKASGYTFTSYVMHWVKQKPGQGLEWIGYINPNNDGTFYNGKFKGKATLTSDKSSSTAYMELSSLTSEDSAVYYCAAFYYGFAYWGQGTLVTVSA
# VL: DIVLTQSPSSLSASLGERVSLTCRASQEISGYLSWLQQKPDGTIKRLIYAASTLDSGVPKRFSGSRSGSDFSLTISSLESEDFADYYCLQYASYPWTFGGGAKLEIKR
# notes: Mouse IgG; also called anti-IL4R-mAb Clone I
# Columns and labels:
# [1] = molecular target: Equine IL4R-ECD_C-HuFc_His6 (processed) (equine); experiment: Western blot, reducing and non-reducing SDS-PAGE
# Chain of Equine IL4R-ECD_C-HuFc_His6 (processed) (equine) (chain, as listed by the source limits assumed): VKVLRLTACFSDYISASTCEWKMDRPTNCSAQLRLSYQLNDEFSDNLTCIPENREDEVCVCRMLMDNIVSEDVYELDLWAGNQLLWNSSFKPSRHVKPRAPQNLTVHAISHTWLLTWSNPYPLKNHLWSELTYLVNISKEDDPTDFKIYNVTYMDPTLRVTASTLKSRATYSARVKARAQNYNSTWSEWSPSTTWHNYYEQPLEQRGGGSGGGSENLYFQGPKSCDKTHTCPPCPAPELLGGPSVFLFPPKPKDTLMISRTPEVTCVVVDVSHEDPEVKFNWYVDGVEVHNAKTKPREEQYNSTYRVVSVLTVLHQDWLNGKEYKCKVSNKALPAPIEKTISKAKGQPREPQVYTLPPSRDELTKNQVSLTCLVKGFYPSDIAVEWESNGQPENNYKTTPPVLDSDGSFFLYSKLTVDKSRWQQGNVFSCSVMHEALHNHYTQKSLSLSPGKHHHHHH
# Method: (§1) Cross-reactivity of Clone I antibody to feline, equine, murine, and human IL4R was also investigated. Canine IL4R-ECD_C-HuFc_His6 (SEQ ID NO: 109), feline IL4R-ECD_C-HuFc_His6 (SEQ ID NO: 111), equine IL4R-ECD_C-HuFc_His6 (SEQ ID NO: 113), murine IL4R-ECD_C-HuFc_His6 (SEQ ID NO: 115), and human IL4R-ECD_C-HuFc_His6 (SEQ ID NO: 117) (0.1 μg/lane) were each separated by SDS-PAGE under reducing (+DTT) or non-reducing (−DTT) conditions. The proteins were transferred to PVDF membranes and the blots were probed with Clone I antibody (0.3 μg/mL) and visualized by goat anti-mouse IgG-HRP (FIG. 4A). As a control, the blot was stripped and probed with goat anti-human IgG Fc-HRP to visualize the presence of the IL4R-ECD proteins (FIG. 4B). Clone I antibody immunoreacted with canine IL4R-ECD_C-HuFc_His6 and to a lesser extent with feline IL4R-ECD_C-HuFc_His6 under non-reducing conditions (FIG. 4A, lanes 5 and 1, respectively).
# [2] = molecular target: Murine IL4R-ECD_C-HuFc_His6 (processed) (murine); experiment: Western blot, reducing and non-reducing SDS-PAGE
# Chain of Murine IL4R-ECD_C-HuFc_His6 (processed) (murine) (chain, as listed by the source limits assumed): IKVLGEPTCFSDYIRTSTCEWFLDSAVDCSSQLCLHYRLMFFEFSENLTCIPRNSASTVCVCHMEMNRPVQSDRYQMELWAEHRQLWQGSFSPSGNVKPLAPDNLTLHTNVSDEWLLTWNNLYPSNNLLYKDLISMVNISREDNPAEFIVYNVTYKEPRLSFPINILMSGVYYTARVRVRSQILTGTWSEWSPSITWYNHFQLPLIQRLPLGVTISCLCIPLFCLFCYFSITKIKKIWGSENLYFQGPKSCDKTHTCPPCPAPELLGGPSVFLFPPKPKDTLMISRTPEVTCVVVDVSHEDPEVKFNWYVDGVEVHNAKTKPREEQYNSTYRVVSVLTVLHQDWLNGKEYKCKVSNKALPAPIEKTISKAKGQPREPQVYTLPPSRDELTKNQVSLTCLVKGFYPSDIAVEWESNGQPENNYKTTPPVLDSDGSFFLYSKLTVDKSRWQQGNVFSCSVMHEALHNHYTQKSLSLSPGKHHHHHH
# Method: as §1
# [3] = molecular target: Human IL4R-ECD_C-HuFc_His6 (processed) (human); experiment: Western blot, reducing and non-reducing SDS-PAGE
# Chain of Human IL4R-ECD_C-HuFc_His6 (processed) (human) (chain, as listed by the source limits assumed): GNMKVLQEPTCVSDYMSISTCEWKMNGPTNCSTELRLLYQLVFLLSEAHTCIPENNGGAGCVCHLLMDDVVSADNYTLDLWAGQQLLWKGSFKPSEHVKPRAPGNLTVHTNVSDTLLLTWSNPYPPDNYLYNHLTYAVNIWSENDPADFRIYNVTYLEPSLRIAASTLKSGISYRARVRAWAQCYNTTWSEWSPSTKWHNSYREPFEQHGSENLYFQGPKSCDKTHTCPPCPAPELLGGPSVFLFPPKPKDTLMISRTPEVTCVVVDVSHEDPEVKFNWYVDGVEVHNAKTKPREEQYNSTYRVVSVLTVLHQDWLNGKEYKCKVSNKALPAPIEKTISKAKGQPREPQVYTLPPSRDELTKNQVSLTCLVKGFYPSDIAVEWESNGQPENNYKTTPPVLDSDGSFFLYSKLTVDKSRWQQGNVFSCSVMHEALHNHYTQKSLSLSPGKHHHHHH
# Method: as §1
# [4] = molecular target: Canine/Human IL4R-ECD_C-HuFc_His6_Hybrid1 (canine/human hybrid); experiment: Western blot, non-reducing, 293 supernatant concentrated 3-fold
# Chain of Canine/Human IL4R-ECD_C-HuFc_His6_Hybrid1 (canine/human hybrid) (chain, as listed by the source limits assumed): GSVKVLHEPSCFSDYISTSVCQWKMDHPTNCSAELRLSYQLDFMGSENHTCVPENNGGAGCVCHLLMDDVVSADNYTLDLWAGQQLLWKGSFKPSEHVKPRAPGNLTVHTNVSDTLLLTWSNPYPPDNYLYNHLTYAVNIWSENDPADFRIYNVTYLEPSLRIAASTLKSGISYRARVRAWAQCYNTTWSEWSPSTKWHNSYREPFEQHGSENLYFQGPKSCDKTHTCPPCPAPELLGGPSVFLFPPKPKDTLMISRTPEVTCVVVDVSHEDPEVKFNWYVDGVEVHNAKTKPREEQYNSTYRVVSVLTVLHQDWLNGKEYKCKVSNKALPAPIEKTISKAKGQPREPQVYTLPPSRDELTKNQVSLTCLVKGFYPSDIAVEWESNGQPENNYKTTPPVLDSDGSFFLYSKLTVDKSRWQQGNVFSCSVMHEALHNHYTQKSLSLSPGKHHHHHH
# [5] = molecular target: Canine/Human IL4R-ECD_C-HuFc_His6_Hybrid6 (canine/human hybrid); experiment: as above
# Chain of Canine/Human IL4R-ECD_C-HuFc_His6_Hybrid6 (canine/human hybrid) (chain, as listed by the source limits assumed): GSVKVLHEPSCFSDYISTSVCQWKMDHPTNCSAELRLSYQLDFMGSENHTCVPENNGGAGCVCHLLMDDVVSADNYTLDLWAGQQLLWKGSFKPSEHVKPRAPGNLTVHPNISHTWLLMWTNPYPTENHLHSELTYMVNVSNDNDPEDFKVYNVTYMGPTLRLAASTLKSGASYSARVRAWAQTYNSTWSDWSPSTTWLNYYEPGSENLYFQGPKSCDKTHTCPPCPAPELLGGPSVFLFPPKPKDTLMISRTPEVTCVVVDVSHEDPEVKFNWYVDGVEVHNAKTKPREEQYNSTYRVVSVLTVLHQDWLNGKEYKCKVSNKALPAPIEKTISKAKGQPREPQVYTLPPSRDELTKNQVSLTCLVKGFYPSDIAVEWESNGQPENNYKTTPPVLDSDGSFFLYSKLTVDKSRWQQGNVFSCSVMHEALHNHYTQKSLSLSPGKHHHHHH
# [6] = molecular target: Canine/Human IL4R-ECD_C-HuFc_His6_Hybrid13 (canine/human hybrid); experiment: as above
# Chain of Canine/Human IL4R-ECD_C-HuFc_His6_Hybrid13 (canine/human hybrid) (chain, as listed by the source limits assumed): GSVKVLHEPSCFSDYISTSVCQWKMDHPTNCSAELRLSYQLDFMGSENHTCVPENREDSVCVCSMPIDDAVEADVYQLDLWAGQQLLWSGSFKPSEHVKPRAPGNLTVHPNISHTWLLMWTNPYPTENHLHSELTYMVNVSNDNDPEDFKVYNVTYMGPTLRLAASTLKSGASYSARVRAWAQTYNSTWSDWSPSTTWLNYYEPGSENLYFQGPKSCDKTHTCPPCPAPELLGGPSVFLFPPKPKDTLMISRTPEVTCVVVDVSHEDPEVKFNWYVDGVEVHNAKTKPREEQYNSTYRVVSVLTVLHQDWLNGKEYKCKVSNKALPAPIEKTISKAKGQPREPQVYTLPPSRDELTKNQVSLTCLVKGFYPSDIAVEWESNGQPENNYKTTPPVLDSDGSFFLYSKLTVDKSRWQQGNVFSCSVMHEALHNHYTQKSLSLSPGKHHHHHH
# [7] = molecular target: Feline IL4R-ECD_C-HuFc_His6 (processed) (feline, biotinylated in the Octet assay of Example 10); experiment: BLI (Octet): biotinylated feline IL4R-ECD_C-HuFc_His6 on streptavidin tips, Clone I 25 ug/mL, 1:1 model
# Chain of Feline IL4R-ECD_C-HuFc_His6 (processed) (feline, biotinylated in the Octet assay of Example 10) (chain, as listed by the source limits assumed): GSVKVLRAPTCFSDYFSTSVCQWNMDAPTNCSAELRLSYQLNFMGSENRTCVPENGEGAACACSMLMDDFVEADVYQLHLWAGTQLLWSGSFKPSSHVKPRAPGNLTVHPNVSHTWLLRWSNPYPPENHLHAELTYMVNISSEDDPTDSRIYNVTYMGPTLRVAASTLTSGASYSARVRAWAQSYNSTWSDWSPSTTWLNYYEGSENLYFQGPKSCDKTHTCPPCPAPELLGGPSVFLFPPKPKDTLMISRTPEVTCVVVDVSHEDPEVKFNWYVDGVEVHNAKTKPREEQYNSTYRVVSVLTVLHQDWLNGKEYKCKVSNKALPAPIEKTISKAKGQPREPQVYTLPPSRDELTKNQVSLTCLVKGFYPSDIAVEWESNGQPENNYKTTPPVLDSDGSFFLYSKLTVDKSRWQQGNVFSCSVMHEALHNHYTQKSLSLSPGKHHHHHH
# Method: This finding was consistent with in vitro binding affinity measured by Octet Biosensor. Biotinylated feline IL4R-ECD_C-HuFc_His6 (SEQ ID NO: 111) was captured on streptavidin sensor tips. The association of Clone I antibody (25 μg/mL) and feline IL4R-ECD_C-HuFc_His6 was monitored for 600 seconds. Dissociation was monitored for 600 seconds. A buffer only blank curve was subtracted to correct for any drift. The data were fit to a 1:1 binding model using ForteBio™ data analysis software to determine the kₒₙ, koff, and the Kd. The buffer for dilutions and all binding steps was 20 mM phosphate, 150 mM NaCl, pH 7.2.
binder,measurement,setting,value
B1,binding result,[1],no binding (tested: Clone I 0.3 ug/mL; 0.1 ug/lane)
same,binding result,[2],no binding (tested: Clone I 0.3 ug/mL; 0.1 ug/lane)
same,binding result,[3],no binding (tested: Clone I 0.3 ug/mL; 0.1 ug/lane)
same,binding result,[4],binds
same,binding result,[5],binds
same,binding result,[6],binds
same,Kd,[7],1.1 nM
